From the DeepSol protein solubility set

test: soluble on expression in E. coli; label from the status in PepcDB or PDB records

Sequence | soluble on expression in E. coli
MGSDKIHHHHHHMKTVKTHITQLLHAMNKGIFEKEHPIALSLLSAISGESIFFLGPPGVAKSLIARRLKLAFDQSTAFEYLMSRFSTPDEIFGPVSISKLKDEDKYERIIEGYLPSATIVFLDEIWKAGPSIQNSLLTVINEKVYRNGQYTIQLPLKGLIAASNELPAQGEGLEALWDRFLIRYFIGNIEQEFAFDQMIASVNDMEAEIPTGLSITEEQYTDWRTQISQIKIHYTVFELIHSIKRQIEKYNIQKEEVPHSTLYISDRRWKKIISLLRTSAFLNETDTIRFSDCTLLLHCLWNEIEQIPIIEQMVSSALDECISHYLCGERTLEQKLSSIREDMKSEHSLRETKDPALQIVDTFYHQIERYPVAGNLLIFASDYQSLQKDTQKLFYVQRDKYRPVNWILKVYDHVRNRNISQSAIVSLKKGTRSVFINNQEYPLACNAGYDIAYPQEASLPFEFRFQEVIDLYHNRENELKRMTDIELTYCKEHLFMDDKQRNMVKQILNRQKEMLEIYQNEIREIAYTHGLENKEY | not soluble
MHKPLRIATVTATCAVAGAVLYTTGAASAGQSTANSTHEPYNIGVLAKDIDAYYGTTLDADGVYQASPDSPYAADLARVDAAAKKQIDRAARTAHHKHTRPAVVFDIDDTLLLSLDYEKKNNYGYDGATWAAYVDRADRPAVPGSPELARYADKKGVEVFYNSGLGEAQRAAAVENLKKAGADVNLDASHMFLKDKANPPSYLAHCATPGSWTCTTVQYKAGTRRHIERDLGYDVVANFGDQYSDLQGGYADRTYKLPNPTYFVE | soluble
METKDLIVIGGGINGAGIAADAAGRGLSVLMLEAQDLACATSSASSKLIHGGLRYLEHYEFRLVSEALAEREVLLKMAPHIAFPMRFRLPHRPHLRPAWMIRIGLFMYDHLGKRTSLPGSTGVRFGADSVLKPEIVRGFEYSDCWVDDARLVLANAQMVVRKGGEVLTRTRATAARRENGLWIVEAEDIDTGKKYVWQARGLVNATGPWVKQFFDEGMHLPSPYGIRLIKGSHIVVPRVHNQKQAYILQNEDKRIVFVIPWMEEFSIIGTTDVEYKGDPKAVKIEESEINYLLKVYNAHFQKQLGRDDIVWTYSGVRPLCDDESDSPQAITRDYTLDIHDENGKAPLLSVFGGKLTTYRKLAEHAMEKLASYYPGIGPAWTKTCVLPGGDIDGSREDYAAKLRRRYPFLTESLARHYSRTYGSNTEWILGEATSLLDLGEDFGHEFYEAELKYLVDHEWVRRTEDAIWRRTKEGMWLTAEQQSRITQWLAAYVEKHQLSMASLEHHHHHH | soluble
MCKDVSGQNLLVAPDAINHHVKTCRENMRYMHYIAPEYENNTELTSAADIYSFGICSLEIAVIGGLSGCQNGSSEGPVTEDVIEKAIRSLEDPMQQDFIRQCLRKDPAERPSARELLFHQILFEVHSLKLLSAHAIVDSKKYEDVSESAFRIKDNETIAATSKLREMAYCQVAAFQVDLEKFLDDVRNGIYPLTAFAPLAHQPSTTLRAYSNTNPSTLITTDISAPSSTHPSANSTITAETSVNTSLPGQSSQPSGTTTNTNGPSSIGKSASPEAVDKKIGEVTSTESTSKVEVEVNGANVTIGSSNGRDAGSPTPEEEGEPNGERDMRLENRHILEINVHIENEEMSIVLLLEDQMHRQLTTSINKGDNPETLTENLITHGFMCQLDSEGVEKAIAVAFDIRAARIAEGVQEEENETSTRESNSEAPIEHGTSSSITNSVKPIVDSVAPSSQTPTTTTSS | not soluble
MAGFAVNLKVVLNSDAVFGTACKRGGGAPETCLLEDMGLEREDIEPFGYEKDKDREILVWHTKTSTPNIVKSNKNSTKKAPPPDTFGYFVEA | not soluble
MSSNFIVESCSVDSEEGVKLHTRIFKPRNEGEEVSDDENLVIVLVHPFSLLGGCQALLKGIASELASKGFKSVTFDTRGAGKSTGRATLTGFAEVKDVVAVCRWLCQNVDAHRILLVGSSAGAPIAGSAVEQVEQVVGYVSLGYPFGLMASILFGRHHKAILSSPKPKLFVMGTQDGFTSVSQLKKKLKSAVGRTETHLIEGVSHFQMEGPEYDSQVTDIICKFISSL | not soluble
MNRWEGLDEFVAVAETGQFTAAAERMGVSSSHISRQVARLEERLQTRLLYRSTRRVSLSEAGQTFLQHCQRLQDARDEALRAVSDLSAEPKGLLRMTCAVAYGERFIVPLVNAFMADYPQLRVDIELSNRQLDLLHEGFDLAIRLGRLSDSRLVATRLAPRVMYLCATPEYLRRHGTPQSPAELGQFNCLIGSSDLWSFLEDGRETQHRVQGNWRCNSGQAVLDAALRGFGLCQLPDYYVIEHLRSGRLASLLEGHQPPNTAVWALYPQQRHLSPKVRQLVDYLKEGLAQSHPGLAGEKNLR | not soluble
MSLYKIGELSKIVNLSIETIRYYEKIRLIPKPERFNNRYKKYSEMYIYRLKIIIKAKNYGFTLHEISNFLSEVSTSSIEDIDLSSTIMNKVQQIEKECERLNYKKNQLLKFEEEINDLQCPVLNRIINEKNEGHHHHHH | soluble
MSLKVLAFDTSSKALSLAILEDKQVLAETTINIKKNHSITLMPAIDFLMASLDWTPKDLDRIVVAEGPGSYTGLRIAVATAKTLAHTLNIELVGMSSLLALVPYQQEGLFIPLMDARRNNVYAGFYENAKPVMAEAHLPFERVIELIKGASQVTFVGEVGPFVEQIQKHLPRTDYKETLPNAANLALLAWDKEADSLHDFVPNYLKRVEAEENWLKNHTESGESYIKRLEGHHHHHH | soluble
MSLQRPLGNHHDGPDTLLVTSDATQTELVTAETEKLRELITRARFVLFDFDGPICRLFAGHKAERVAVELVEWLEGRGLHALLSETEREALDPHIVLRAVDRRHPGSDLVAELEERLTKQELRAASSAMPTAYADPLIRTWTAVGARLAIATNNSPRVARKYVASRGLSACFAPHIYGRTQDLHLLKPDPHCLNRALNAMGAAPSASLMIGDTPSDYFAAQRAGVPFLGYARNDRKEKLLKEAGAEEIVGSLELVLRVLREQSASAREGHHHHHH | soluble
MSLSAFLPSLDTPVALLDMPRMQRNIQRMQQRMNELGVRLRPHVKTSKSLPVIQAQMAAGARGVTVSTLKEAEHCFAEGISDVFYAVAIAPGKLDQALKLRRIGCRLSILTDSVVAAQAIVAFGQQHDEQFQVWIEIDCDGHRSGLTVEDNALIEVARTLVEGGMQLRGVMTHAGSSYDLDTPEALQALAEQERLLCVSAAERIRQAGLPCPEVSIGSTPTALSAQGLAGVTEVRAGVYVFFDLVMHNIGVCGADEGHHHHHH | not soluble
MSLTELPKEFLEDIEEILKDEYDDFIKSYEESKTTGLRINTLKIDKKKLFDLELFDLNQIPWAEEGFYYDDKIDRPGRNPLHEAGAYYLQEPSAMSVIPKADIKEGEKVLDMCAAPGGKSTYILSKLNDTGLLVSNEINASRIKALGENLERFGARNCIITNTDSNSLRKTFNGYFDKVIIDAPCSGQGMFRKDEVAISDWSYAKVVECQSIQKEIIRDGYKMLKKDGILIYSTCTFSREENEHVINEFISEYPHAELIEMERLWPHKIKGEGHFVAKIKKLEEEECNVKELKIKNLDKEIKDYREFEKKFLKVDFYSNKKNKFYLRGENLYLLPEIYPDTKKLKVLRYGLHLGVLKKNRFEPSHALSHYLKVEDVKNVENFSVQSESILKYLKGDVVNSNDSRGWVLVSVEGIPLGWGKESSGVIKNHYPKGLRKVEGHHHHHH | soluble
MQIMGLLEDKALVEAALFVAGRPLSVKELSKALGIKSLDYLEKLIELIASEYAERKSAIEVTKVAGDKWVMQVKQEYSQRVIHLMPKPELTAGELKTLALIAFLQPVEQSKIVKLRGSQAYEHIKRLLEMGLIYAEPYERTKLLGTTEKFAELYGFPENDPNLIREKFREVIHAEYEDLVKKLEETEANRNNPTT | soluble
RAKAFIDAANQYSINELYLISHALLETGNGTSALANGLTYNGKTVYNMYGIGAYDSNPNYYGAKYAYEQGWFTPEAAIIGGAKFIGSSYIHNTAYNQDTLYKMRWSATATHQYATDIGWAYKQVNRMYSLYSLLDG | not soluble
MSENPLLERARRFLSALRHCQVLGLTVEAADEKGLTLRLPYSQAIIGNPESGVVHGGAITTLMDTTCGISTVCVLPDFEICPTLDLRIDYMHPAEPHKDVYGFAECYRVTPNVIFTRGFAYQDDPGQPIAHVVGAFMRMGLEHHHHHH | soluble
MRFITIAAVLLVSSLLIVEASSIRDKRQSCGCASQVQPSCSCQQATQPQQYSCSCQNTAPVQTSCSCAQPVQQVTYQVQTSQCAPACQQSCQNQCQFAPSMNECQSSCQQTCQTSSCYTQIAAPAPVQCQPSCMPACEQSCVAPAPVTVQCVPQCQQKCTQQCVQAQPIQQCQPQCQQQCVQQCAPTVAPQVINVNLGISAQCAPQCQQQCQQQCLLQQVPVQQCYQECTQPCQTTCQQAAPQCVQQCAPQCQQPSAPQCQQCQNTCQQYAPVCQQQCAPQCTLPSAPACQQCQTSCQQTQQCQQQCIPQCQQPAAPQCQQCQSACQSPVVAPQIVTVILEPSVSQSAQCVPQCQQSCQQQCIQQQQPMQQCAPACTQSCYQSCSTAQLVQMPCLTQSVNSCSCQQNYSPCGNGQCCKRM | not soluble
MAHHHHHHMTRKVAGDMWDSRVEASLPALNYLRTAQQLQKKADELSRAQERVHRLQEDNSALLLENELLKRERDALLCKVQFLELNEHGHCTTNDIVGPWGNVRSVPAGGLGSTTGGDLSPVFKDNVNKASETRVNISEQARTHTNSEQQDLHNPKEETILCPLSASSETLINTNRPDANIETFHRSTESHVEYCANGECRSPISMTRTTQTVAYERRVPSVERGTMTTMNIYICSYQSLPSKAGAFFEVPLSNVETAIHHDPESLTSITIPRS | not soluble
MSSAPLPPKPIERGYASAGLLARILVSKYMEHIPLYRQSEIYARQGVELSRNTMVRWVSEMADKLRPLYIALNDYVLEAGKVHADDTPVKVLAPGNGKTKTGRLWVYVRDDRNAGSSLPAAVWFAYSADRKGEHPQLHLAKYQGVLQADAYAGYNVLYETGRVKEAGCLAHARRKIHDEDVRRPTEMTQEALRRIAELYDIEAEIRGSPAEERLAVRKARSVQLMQSLYDWIQLQRKTLSKHAEMAKAFDYILNHWNALNEFCRDGRVEIDNNIGENALRSVAVGRKNYLFFGSDKGGESAAIIYSLLVTCKQNEVEPEDWLREVIEKLNDWPSNQVHELLPWNFSSVK | not soluble
VTSSLPTVQRVIQNALEVSQLKYSQHPRPGGAPPALIVELPGERKLKINTILSVGEHSVRVEAFVCRKPDENREDVYRFLLRRNRRLYGVAYTLDNVGDIYLVGQMALSAVDADEVDRVLGQVLEVVDSDFNALLELGFRSSIQREWQWRLSRGESLQNLQAFAHLRPTTMQSAQRDEKELGG | soluble
LSAQEIIQYISDAKKSTPLKVYVNGHFENVTFPESFKVFGSEHSKVIFCEANEWKQFYQQNHSLITELEIEMDRRNSAIPLKDLTNTN | soluble
MLRRQARERREYLYRKAQELQDSQLQQKRQIIKQALAQGKPLPKELAEDESLQKDFRYDQSLKESEEADDLQVDDEYAATSGIMDPRIIVTTSRDPSTRLSQFAKEIKLLFPNAVRLNRGNYVMPNLVDACKKSGTTDLVVLHEHRGVPTSLTISHFPHGPTAQFSLHNVVMRHDIINAGNQSEVNPHLIFDNFTTALGKRVVCILKHLFNAGPKKDSERVITFANRGDFISVRQHVYVRTREGVEIAEVGPRFEMRLFELRLGTLENKDADVEWQLRRFIRTANKKDYL | soluble
